Experimental data published in doi:10.1101/2020.08.03.234229 (bioRxiv, 2020).

Target: T1, TSEN15 tryptic fragment (residues 23 to 170) (human, UniProt Q8WW01 23-170)
T1 sequence (looked up): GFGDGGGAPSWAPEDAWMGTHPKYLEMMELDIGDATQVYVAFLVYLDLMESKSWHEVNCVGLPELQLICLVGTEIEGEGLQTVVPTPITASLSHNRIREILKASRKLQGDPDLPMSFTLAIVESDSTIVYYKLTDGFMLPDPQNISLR
Assay: SEC

B1: TSEN34 tryptic fragment (residues 208 to 310) (domain or fragment, human, UniProt Q9BSV6 208-310, looked up)
chain: DWPHAGRPAHELRYSIYRDLWERGFFLSAAGKFGGDFLVYPGDPLRFHAHYIAQCWAPEDTIPLQDLVAAGRLGTSVRKTLLLCSPQPDGKVVYTSLQWASLQ
**Q.** Does B1 bind?
**A.** Result: binds
